Data taken from the supplement of paper PMC12338614.
± gives the uncertainty stated by the source.

B1: library; numbered along this chain (parent)
chain: MEVVDPQQLGMFTEGELMSVGMDTFIHRIDSTEVIYQPRRKRAKLIGKYLMGDLLGEGSYGKVKEVLDSETLCRRAVKILKKKKLRRIPNGEANVKKEIQLLRRLRHKNVIQLVDVLYNEEKQKMYMVMEYCVCGMQEMLDSVPEKRFPVCQAHGYFCQLIDGLEYLHSQGIVHKDIKPGNLLLTTGGTLKISDLGVAEALHPFAADDTCRTSQGSPAFQPPEIANGLDTFSGFKVDIWSAGVTLYNITTGLYPFEGDNIYKLFENIGKGSYAIPGDCGPPLSDLLKGMLEYEPAKRFSIRQIRQHSWFRKKHPPAEAPVPIPPSPDTKDRWRSMTVVPYLEDLHGADEDEDLFDIEDDIIYTQDFTVPGQVPEEEASHNGQRRGLPKAVCMNGTEAAQLSTKSRAEGRAPNPARKACSASSKIRRLSACKQQ

Variants of: B1
Assay: STK11 functional score (HeLa growth suppression), rescaled enrichment; synonymous median = 1, nonsense median = 0 (normalised score)
Settings: with HeLa; variant type: missense
Method: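 Deep mutational scan (TileSeq/POPCode codon randomisation) of full-length codon-optimised STK11 cDNA integrated at a Bxb1 landing pad (AAVS1) in HeLa cells. Restoring functional STK11 suppresses HeLa proliferation. Variant frequencies were measured by NGS before and after about two weeks of growth. The error-corrected enrichment log-ratio was rescaled so that synonymous median = 1 and nonsense median = 0, scores above 1 were compressed, and codon-level and three biological replicate scores were combined; error is the bootstrapped standard error. Scale: synonymous median = 1, nonsense median = 0; below 0.5 = damaging.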
MEVVDPQQLGMFTEGELMSVGMDTFIHRIDSTEVIYQPRRKRAKLIGKYLMGDLLGEGSYGKVKEVLDSETLCRRAVKILKKKKLRRIPNGEANVKKEIQLLRRLRHKNVIQLVDVLYNEEKQKMYMVMEYCVCGMQEMLDSVPEKRFPVCQAHGYFCQLIDGLEYLHSQGIVHKDIKPGNLLLTTGGTLKISDLGVAEALHPFAADDTCRTSQGSPAFQPPEIANGLDTFSGFKVDIWSAGVTLYNITTGLYPFEGDNIYKLFENIGKGSYAIPGDCGPPLSDLLKGMLEYEPAKRFSIRQIRQHSWFRKKHPPAEAPVPIPPSPDTKDRWRSMTVVPYLEDLHGADEDEDLFDIEDDIIYTQDFTVPGQVPEEEASHNGQRRGLPKAVCMNGTEAAQLSTKSRAEGRAPNPARKACSASSIIRRLSACKQQ [K423I] showed an STK11 functional score of 1.25 ± 0.18. With MEVVDPQQLGMFTEGELMSVGMDTFIHRIDSTEVIYQPRRKRAKLIGKYLMGDLLGEGSYGKVKEVLDSETLCRRAVKILKKKKLRRIPNGEANVKKEIQLLRRLRHKNVIQLVDVLYNEEKQKMYMVMEYCVCGMQEMLDSVPEKRFPVCQAHGYFCQLIDGLEYLHSQGIVHKDIKPGNLLLTTGGTLKISDLGVAEALHPFAADDTCRTSQGSPAFQPPEIANGLDTFSGFKVDIWSAGVTLYNITTGLYPFEGDNIYKLFENIGKGSYAIPGDCGPPLSDLLKGMLEYEPAKRFSIRQIRQHSWFRKKHPPAEAPVPIPPSPDTKDRWRSMTVVPYLEDLHGADEDEDLFDIEDDIIYTQDFTVPGQVPEEEASHNGQRHGLPKAVCMNGTEAAQLSTKSRAEGRAPNPARKACSASSKIRRLSACKQQ [R384H] the STK11 functional score was 1.47 ± 0.13. For MEVVDPQQLGMFTEGELMSVGMDTFIHRIDSTEVIYQPRRKRAKLIGKYLMGDLLGEGSYGKVKEVLDSETLCRRAVKILKKKKLRRIPNGEANVKKEIQLLRRLRHKNVIQLVDVLYNEEKQKMYMVMEYCVCGMQEMLDSVPEKRFPVCQAHGYFCQLIDGLEYLHSQGIVHKDIKPGNLLLTTGGTLKISDLGVAEALHPFAADDTCRTSQGSPAFQPPEIANGLDTFSGFKVDIWSAGVTLYNITTGLYPFEGDNIYKLFENIGKGSYAIPGDCGPPLSDLLKGMLEYEPAKRFSIRQIRQHSWFRKKHPPAEAPVPIPPSPDTKDRWRGMTVVPYLEDLHGADEDEDLFDIEDDIIYTQDFTVPGQVPEEEASHNGQRRGLPKAVCMNGTEAAQLSTKSRAEGRAPNPARKACSASSKIRRLSACKQQ [S334G], the STK11 functional score was 1.35 ± 0.17. MEVVDPQQLGMFTEGELMSVGMDTFIHRIDSTEVIYQPRRKRAKLIGKYLMGDLLGEGSYGKVKEVLDSETLCRRAVKILKKKKLRRIPNGEANVKKEIQLLRRLRHKNVIQLVDVLYNEEKQKMYMVMEYCVCGMQEMLDSVPEKRFPVCQAHGYFCQLIDGLEYLHSQGIVHKDIKPGNLLLTTGGTLKISDLGVAEALHPFAADDTCRTSQGSPAFQPPEIANGLDTFSGFKVDIWSAGVTLYNITTGLYPFEGDNIYKLFENIGKGSYAIPGDCGPPLSDLLKGMLEYEPAKRFSIRQIRQHSWFRKKHPPAEAPVPILPSPDTKDRWRSMTVVPYLEDLHGADEDEDLFDIEDDIIYTQDFTVPGQVPEEEASHNGQRRGLPKAVCMNGTEAAQLSTKSRAEGRAPNPARKACSASSKIRRLSACKQQ [P323L] gave an STK11 functional score of 0.92 ± 0.24. Variant MEVVDPQQLGMFTEGELMSVGMDTFIHRIDSTEVIYQPRRKRAKLIGKYLMGDLLGEGSYGKVKEVLDSETLCRRAVKILKKKKLRRIPNGEANVKKEIQLLRRLRHKNVIQLVDVLYNEEKQKMYMVMEYCVCGMQEMLDSVPEKRFPVCQAHGYFCQLIDGLEYLHSQGIVHKDIKPGNLLLTTGGTLKISDLGVAEALHPFAADDTCRTSQGSPAFQPPEIANGLDTFSGFKVDIWSAGVTLYNITTGLYPFEGDNIYKLFENIGKGSYAIPGDCGPPLSDLLKGMLEYEPAKRFSIRQIRQHSWFRKKHPPAEAPVPIPPSPDTKDRWRSMTVVPYLEDLHGADEDEDLFDIEDDIIYTQDFTVPGQVPEEEASHNGQRRGLPKAVCMNGTEAAQLSTKSRAEGRAPLPARKACSASSKIRRLSACKQQ [N412L] has an STK11 functional score of 1.62 ± 0.21. MEVVDPQQLGMFTEGELMSVGMDTFIHRIDSTEVIYQPRRKRAKLIGKYLMGDLLGEGSYGKVKEVLDSETLCRRAVKILKKKKLRRIPNGEANVKKEIQLLRRLRHKNVIQLVDVLYNEEKQKMYMVMEYCVCGMQEMLDSVPEKRFPVCQAHGYFCQLIDGLEYLHSQGIVHKDIKPGNLLLTTGGTLKISDLGVAEALHPFAADDTCRTSQGSPAFQPPEIANGLDTFSGFKVDIWSAGVTLYNITTGLYPFEGDNIYKLFENIGKGSYAIPGDCGPPLSDLLKGMLEYEPAKRFSIRQIRQHSWFRKKHPPAEAPVPIPPSPDTKDRWRSMTVVPYLEDLHGADEDEDLFDIEDDIIYTQDFTVPGQVPEEEASHNGQRRGLPKAVCMNGTYAAQLSTKSRAEGRAPNPARKACSASSKIRRLSACKQQ [E396Y] showed an STK11 functional score of 1.23 ± 0.21. Variant MEVVDPQQLGMFTEGELMSVGMDTFIHRIDSTEVIYQPRRKRAKLIGKYLMGDLLGEGSYGKVKEVLDSETLCRRAVKILKKKKLRRIPNGEANVKKEIQLLRRLRHKNVIQLVDVLYNEEKQKMYMVMEYCVCGMQEMLDSVPEKRFPVCQAHGYFCQLIDGLEYLHSQGIVHKDIKPGNLLLTTGGTLKISDLGVAEALHPFAADDTCRTSQGSPAFQPPEIANGLDTFSGFKVDIWSAGVTLYNITTGLYPFEGDNIYKLFENIGKGSYAIPGDCGPPLSDLLKGMLEYEPAKRFSIRQIRQHSWFRKKHPPAEAPVPIPPSPDTKDRWRSMTVVPYLEDLHGADEDEDLCDIEDDIIYTQDFTVPGQVPEEEASHNGQRRGLPKAVCMNGTEAAQLSTKSRAEGRAPNPARKACSASSKIRRLSACKQQ [F354C] has an STK11 functional score of 0.742 ± 0.34. MEVVDPQQLGMFTEGELMSVGMDTFIHRIDSTEVIYQPRRKRAKLIGKYLMGDLLGEGSYGKVKEVLDSETLCRRAVKILKKKKLRRIPNGEANVKKEIQLLRRLRHKNVIQLVDVLYVEEKQKMYMVMEYCVCGMQEMLDSVPEKRFPVCQAHGYFCQLIDGLEYLHSQGIVHKDIKPGNLLLTTGGTLKISDLGVAEALHPFAADDTCRTSQGSPAFQPPEIANGLDTFSGFKVDIWSAGVTLYNITTGLYPFEGDNIYKLFENIGKGSYAIPGDCGPPLSDLLKGMLEYEPAKRFSIRQIRQHSWFRKKHPPAEAPVPIPPSPDTKDRWRSMTVVPYLEDLHGADEDEDLFDIEDDIIYTQDFTVPGQVPEEEASHNGQRRGLPKAVCMNGTEAAQLSTKSRAEGRAPNPARKACSASSKIRRLSACKQQ [N119V] showed an STK11 functional score of 0.707 ± 0.14. MEVVDPQQLGMFTEGELMSVGMDTFIHRIDSTEVIYQPRRKRAKLIGKYLMGDLLGEGSYGKVKEVLDSETLCRRAVKILKKKKLRRIPNGEANVKKEIQLLRRLRHKNVIQLVDVLYNEEKQKMYMVMEYCVCGMQEMLDSVPEKRFPVCQAHGYFCQLIDGLEYLHSQGIVHKDIKPGNLLLTTGGLLKISDLGVAEALHPFAADDTCRTSQGSPAFQPPEIANGLDTFSGFKVDIWSAGVTLYNITTGLYPFEGDNIYKLFENIGKGSYAIPGDCGPPLSDLLKGMLEYEPAKRFSIRQIRQHSWFRKKHPPAEAPVPIPPSPDTKDRWRSMTVVPYLEDLHGADEDEDLFDIEDDIIYTQDFTVPGQVPEEEASHNGQRRGLPKAVCMNGTEAAQLSTKSRAEGRAPNPARKACSASSKIRRLSACKQQ [T189L] showed an STK11 functional score of 1.24 ± 0.39. MEVVDPQQLGMFTEGELMSVGMDTFIHRIDSTEVIYQPRRKRAKLIGKYLMGDLLGEGSYGKVKEVLDSETLCRRAVKILKKKKLRRIPNGEANVKKEIQLLRRLRHKNVIQLVDVLYNEEKQKMYMVMEYCVCGMQEMLDSVPEKRFPVCQAHGYFCQLIDGLEYLHSQGIVHKDIKPGNLLLTTGGTLKISDLGVAEALHPFAADDTCRTSQGSPAFQPPEIANGLDTFSGFKVDIWSAGVTLYNITTGLYPFEGDNIYKLFENIGKGSYAIPGDCGPPLSDLLKGMLEYEPAKRFSIRQIRQHSWFRKKHPPAEAPVPIPPSPDTKDRWRSMTVVPYLEDLHGADEDEDLFDIEDDIIYTQDFTVPGQVPEEEASHNGQRRGLPKAVNMNGTEAAQLSTKSRAEGRAPNPARKACSASSKIRRLSACKQQ [C391N] showed an STK11 functional score of 0.483 ± 0.73. MEVVDPQQLGMFTEGELMSVGMDTFIHRIDSTEVIYQPRRKRAKLIGKYLMGDLLGEGSYGKVKEVLDSETLCRRAVKILKKKKLRRIPNGEANVKKEIQLLRRLRHKNVIQLVDVLYNEEKQKMYMVMEYCVCGMQEMLDSVPRKRFPVCQAHGYFCQLIDGLEYLHSQGIVHKDIKPGNLLLTTGGTLKISDLGVAEALHPFAADDTCRTSQGSPAFQPPEIANGLDTFSGFKVDIWSAGVTLYNITTGLYPFEGDNIYKLFENIGKGSYAIPGDCGPPLSDLLKGMLEYEPAKRFSIRQIRQHSWFRKKHPPAEAPVPIPPSPDTKDRWRSMTVVPYLEDLHGADEDEDLFDIEDDIIYTQDFTVPGQVPEEEASHNGQRRGLPKAVCMNGTEAAQLSTKSRAEGRAPNPARKACSASSKIRRLSACKQQ [E145R] gave an STK11 functional score of 1.21 ± 0.43. With MEVVDPQQLGMFTEGELMSVGMDTFIHRIDSTEVIYQPRRKRAKLIGKYLMGDLLGEGSYGKVKEVLDSETLCRRAVKILKKKKLRRIPNGEANVKKEIQLLRRLRHKNVIQLVDVLYNEEKQKMYMVMEYCVCGMQEMLDSVPEKRFPVCQAHGYFCQLIDGLEYLHSQGIVHKDIKPGNLLLTTGGTLKISDLGVAEALHPFAADDTCRTSQGSPAFQPPEIANGLDTFSGFKVDIWSAGVTLYNITTGLYPFEGDNIYKLFENIGKGSYAIPGDCGPPLSDLLKGMLEYEPAKRFSIRQIRQHSWFRKKHPPAEAPVPIPPSPDTKDRWRSMTVVPYLEDLHGADEDEDLFDIEDDIIYTQDFTVPGQVPEEEASENGQRRGLPKAVCMNGTEAAQLSTKSRAEGRAPNPARKACSASSKIRRLSACKQQ [H379E] the STK11 functional score was 0.586 ± 0.27. With MEVVDPQQLGMFTEGELMSVGMDTFIHRIDSTEVIYQPRRKRAKLIGKYLMGDLLGEGSYGKVKEVLDSETLCRTAVKILKKKKLRRIPNGEANVKKEIQLLRRLRHKNVIQLVDVLYNEEKQKMYMVMEYCVCGMQEMLDSVPEKRFPVCQAHGYFCQLIDGLEYLHSQGIVHKDIKPGNLLLTTGGTLKISDLGVAEALHPFAADDTCRTSQGSPAFQPPEIANGLDTFSGFKVDIWSAGVTLYNITTGLYPFEGDNIYKLFENIGKGSYAIPGDCGPPLSDLLKGMLEYEPAKRFSIRQIRQHSWFRKKHPPAEAPVPIPPSPDTKDRWRSMTVVPYLEDLHGADEDEDLFDIEDDIIYTQDFTVPGQVPEEEASHNGQRRGLPKAVCMNGTEAAQLSTKSRAEGRAPNPARKACSASSKIRRLSACKQQ [R75T] the STK11 functional score was 0.85 ± 0.23. In the case of MEVVDPQQLGMFTEGELMSVGMDTFIHRIDSTEVIYQPRRKRAKLIGKYLMGDLLGEGSYGKVKEVLDSETLCRRAVKILKKKKLRRIPNGEANVKKEIQLLRRLRHKNVIQLVDVLYNQEKQKMYMVMEYCVCGMQEMLDSVPEKRFPVCQAHGYFCQLIDGLEYLHSQGIVHKDIKPGNLLLTTGGTLKISDLGVAEALHPFAADDTCRTSQGSPAFQPPEIANGLDTFSGFKVDIWSAGVTLYNITTGLYPFEGDNIYKLFENIGKGSYAIPGDCGPPLSDLLKGMLEYEPAKRFSIRQIRQHSWFRKKHPPAEAPVPIPPSPDTKDRWRSMTVVPYLEDLHGADEDEDLFDIEDDIIYTQDFTVPGQVPEEEASHNGQRRGLPKAVCMNGTEAAQLSTKSRAEGRAPNPARKACSASSKIRRLSACKQQ [E120Q], the STK11 functional score is reported as 1.16 ± 0.49.
